In patent publication US20230103885A1 (CRISPR THERAPEUTICS, published 2023):
Positions count from the first letter of the chain named.

Tests used:
[1] = target: T1, anti-CD19 CAR comprising the anti-CD19 scFv of SEQ ID NO:1; assay: flow cytometry on anti-CD19 CAR T cells, dilution 1:800
T1 construct: also called anti-CD19 chimeric antigen receptor; anti-CD19 CAR T cells
Excerpt: (§1) The 29E4B5 antibodies produced using the first or the second method were compared with a reference anti-FMC63-scFv antibody (rec_mab3) for the ability to bind to the anti-CD19 CAR T cells using flow cytometry. Both methods produced 29E4B5 antibodies with higher affinity to the anti-CD19 cells than rec_mab3, showing higher CAR positive percentage even at 1:6,400 dilutions (Table 9).

[2] = target: T2, irrelevant His-tagged protein; assay: indirect ELISA, purified native antibody at 250 ng/ml (1:4,000)
T2 construct: also called coating antigen C
Procedure: (§2) In the first (native) method, hybridoma cells (29E4B5) were cultured in low IgG culture medium in a roller bottle for 10 days. The supernatants were collected and protein A purified to obtain purified antibodies. The purified antibodies were analyzed for the ability to bind the FMC63-scFv protein and anti-CD19 CAR T cells using ELISA (Table 8).
(§3) A: Recombinant FMC63-scFv protein B: […] (FMC63-scFv linker peptide)(SEQ ID NO: 6) C: His-tagged protein D: Total human IgG The titer was the highest dilution where the Signal/Blank (S/B) ratio was ≥2.1. OD₄₅₀ for Blank was the average of two technical replicates. The starting concentration was 1 mg/ml, and the corresponding dilution ratio was calculated based on the actual concentration.

Total human IgG [3] = target: T3, Total human IgG (human); assay: as above
T3 construct: also called coating antigen D
Procedure: as §2, §3

[4] = target: T4, FMC63-scFv linker peptide; assay: as above
T4 construct: also called coating antigen B
T4 peptide: TGSTSGSGKPGSGEGSTKG
Procedure: as §2, §3

[5] = target: T5, Recombinant FMC63-scFv protein; assay: as above
T5 construct: also called His-tagged single-chain variable fragment of mouse anti-human CD19 antibody FMC63; coating antigen A
T5 sequence (scFv, as listed by the source): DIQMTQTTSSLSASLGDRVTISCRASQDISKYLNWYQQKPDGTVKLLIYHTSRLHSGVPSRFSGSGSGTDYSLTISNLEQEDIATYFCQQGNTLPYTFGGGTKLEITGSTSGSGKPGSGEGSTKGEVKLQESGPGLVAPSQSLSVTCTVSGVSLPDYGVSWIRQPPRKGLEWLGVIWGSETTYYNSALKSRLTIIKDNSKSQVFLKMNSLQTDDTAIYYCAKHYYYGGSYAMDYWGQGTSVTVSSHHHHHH
Procedure: as §2, §3

[6] = target: T2, irrelevant His-tagged protein; assay: indirect ELISA, purified native antibody at 3.90 ng/ml (1:256,000)
Procedure: as §2, §3

Total human IgG [7] = target: T3, Total human IgG; assay: as above
Procedure: as §2, §3

[8] = target: T4, FMC63-scFv linker peptide; assay: as above
Procedure: as §2, §3

[9] = target: T5, Recombinant FMC63-scFv protein; assay: as above
Procedure: as §2, §3

[10] = target: T2, irrelevant His-tagged protein; assay: indirect ELISA, purified native antibody at 62.50 ng/ml (1:16,000)
Procedure: as §2, §3

Total human IgG [11] = target: T3, Total human IgG; assay: as above
Procedure: as §2, §3

[12] = target: T4, FMC63-scFv linker peptide; assay: as above
Procedure: as §2, §3

[13] = target: T5, Recombinant FMC63-scFv protein; assay: as above
Procedure: as §2, §3

[14] = target: T1, anti-CD19 CAR comprising the anti-CD19 …; assay: flow cytometry on anti-CD19 CAR T cells, dilution 1:400
Excerpt: as §1

[15] = target: T2, irrelevant His-tagged protein; assay: indirect ELISA, subclone culture supernatant on coated antigen
Total human IgG [16] = target: T3, Total human IgG; assay: as above
[17] = target: T4, FMC63-scFv linker peptide; assay: as above
[18] = target: T5, Recombinant FMC63-scFv protein; assay: as above
[19] = target: T2, irrelevant His-tagged protein; assay: indirect ELISA, purified native antibody at 15.62 ng/ml (1:64,000)
Procedure: as §2, §3

Total human IgG [20] = target: T3, Total human IgG; assay: as above
Procedure: as §2, §3

[21] = target: T4, FMC63-scFv linker peptide; assay: as above
Procedure: as §2, §3

[22] = target: T5, Recombinant FMC63-scFv protein; assay: as above
Procedure: as §2, §3

[23] = target: T2, irrelevant His-tagged protein; assay: indirect ELISA, purified native antibody at 31.25 ng/ml (1:32,000)
Procedure: as §2, §3

Total human IgG [24] = target: T3, Total human IgG; assay: as above
Procedure: as §2, §3

[25] = target: T4, FMC63-scFv linker peptide; assay: as above
Procedure: as §2, §3

[26] = target: T5, Recombinant FMC63-scFv protein; assay: as above
Procedure: as §2, §3

[27] = target: T1, anti-CD19 CAR comprising the anti-CD19 …; assay: flow cytometry on anti-CD19 CAR T cells, dilution 1:1600
Excerpt: as §1

[28] = target: T1, anti-CD19 CAR comprising the anti-CD19 …; assay: flow cytometry on anti-CD19 CAR T cells, dilution 1:100
Excerpt: as §1

[29] = target: T2, irrelevant His-tagged protein; assay: indirect ELISA, purified native antibody; highest dilution with Signal/Blank >=2.1
Procedure: as §2, §3

Total human IgG [30] = target: T3, Total human IgG; assay: as above
Procedure: as §2, §3

[31] = target: T4, FMC63-scFv linker peptide; assay: as above
Procedure: as §2, §3

[32] = target: T5, Recombinant FMC63-scFv protein; assay: as above
Procedure: as §2, §3

[33] = target: T2, irrelevant His-tagged protein; assay: indirect ELISA, purified native antibody at 1.95 ng/ml (1:512,000)
Procedure: as §2, §3

Total human IgG [34] = target: T3, Total human IgG; assay: as above
Procedure: as §2, §3

[35] = target: T4, FMC63-scFv linker peptide; assay: as above
Procedure: as §2, §3

[36] = target: T5, Recombinant FMC63-scFv protein; assay: as above
Procedure: as §2, §3

[37] = target: T2, irrelevant His-tagged protein; assay: indirect ELISA, purified native antibody at 7.81 ng/ml (1:128,000)
Procedure: as §2, §3

Total human IgG [38] = target: T3, Total human IgG; assay: as above
Procedure: as §2, §3

[39] = target: T4, FMC63-scFv linker peptide; assay: as above
Procedure: as §2, §3

[40] = target: T5, Recombinant FMC63-scFv protein; assay: as above
Procedure: as §2, §3

[41] = target: T2, irrelevant His-tagged protein; assay: indirect ELISA, purified native antibody at 125 ng/ml (1:8,000)
Procedure: as §2, §3

Total human IgG [42] = target: T3, Total human IgG; assay: as above
Procedure: as §2, §3

[43] = target: T4, FMC63-scFv linker peptide; assay: as above
Procedure: as §2, §3

[44] = target: T5, Recombinant FMC63-scFv protein; assay: as above
Procedure: as §2, §3

[45] = target: T1, anti-CD19 CAR comprising the anti-CD19 …; assay: flow cytometry on anti-CD19 CAR T cells, dilution 1:6400
Excerpt: as §1

[46] = target: T2, irrelevant His-tagged protein; assay: indirect ELISA, purified native antibody at 500 ng/ml (1:2,000)
Procedure: as §2, §3

Total human IgG [47] = target: T3, Total human IgG; assay: as above
Procedure: as §2, §3

[48] = target: T4, FMC63-scFv linker peptide; assay: as above
Procedure: as §2, §3

[49] = target: T5, Recombinant FMC63-scFv protein; assay: as above
Procedure: as §2, §3

[50] = target: T1, anti-CD19 CAR comprising the anti-CD19 …; assay: flow cytometry on anti-CD19 CAR T cells, dilution 1:3200
Excerpt: as §1

[51] = target: T2, irrelevant His-tagged protein; assay: indirect ELISA, purified native antibody at 1,000 ng/ml (1:1,000)
Procedure: as §2, §3

Total human IgG [52] = target: T3, Total human IgG; assay: as above
Procedure: as §2, §3

[53] = target: T4, FMC63-scFv linker peptide; assay: as above
Procedure: as §2, §3

[54] = target: T5, Recombinant FMC63-scFv protein; assay: as above
Procedure: as §2, §3

[55] = target: T1, anti-CD19 CAR comprising the anti-CD19 …; assay: flow cytometry on anti-CD19 CAR T cells, dilution 1:200
Excerpt: as §1

[56] = target: T1, anti-CD19 CAR comprising the anti-CD19 …; assay: flow cytometry on anti-CD19 CAR T cells, dilution 1:50
Excerpt: as §1

B1: mouse anti-FMC63-scFv monoclonal antibody 29E4B5 (antibody, mouse IgG1, kappa, V domains shown)
VH: EVKLLQSGGGLVQPGGSLKLSCAASGIDFSRYWMSWVRRAPGKGLEWIGEINLDSSTKNYAPSLKDKFIISRDNAKNTLYLQMSKVRSEDTALYYCARNYVGMDYWGQGTSVTVSS
VL: DIVLTQSPASLAVSLGQRATISCRASKSVSSSDYTYMHWYQQKPGQPPKLLIYLASNLESGVPARFSGSGSGTDFTLNIHPVEEEDAATYYCQHSRELPPTFGGGTKLEIKR
notes: Hybridoma-derived antibody (culture supernatant, microscale purified, or protein A purified native lot), isotype IgG1, kappa; These are left out by the residue ranges; also called 29E4B5-1; 29E4B5-1 (Native)
- % CAR+ [1]: 67.6%
- OD450 [2]: 0.054 OD450
- OD450 (Total human IgG [3]): 0.079 OD450
- OD450 [4]: 0.062 OD450
- OD450 [5]: 1.85 OD450
- OD450 [6]: 0.084 OD450
- OD450 (Total human IgG [7]): 0.073 OD450
- OD450 [8]: 0.068 OD450
- OD450 [9]: 0.407 OD450
- OD450 [10]: 0.051 OD450
- OD450 (Total human IgG [11]): 0.071 OD450
- OD450 [12]: 0.075 OD450
- OD450 [13]: 1.71 OD450
- % CAR+ [14]: 67.6%
- OD450 nm [15]: 0.201 OD450
- OD450 nm (Total human IgG [16]): 0.178 OD450
- OD450 nm [17]: 0.087 OD450
- OD450 nm [18]: 1.5 OD450
- OD450 [19]: 0.088 OD450
- OD450 (Total human IgG [20]): 0.067 OD450
- OD450 [21]: 0.067 OD450
- OD450 [22]: 0.983 OD450
- OD450 [23]: 0.059 OD450
- OD450 (Total human IgG [24]): 0.076 OD450
- OD450 [25]: 0.061 OD450
- OD450 [26]: 1.32 OD450
- % CAR+ [27]: 67.9%
- % CAR+ [28]: 69.2%
- Titer [29]: < 1000 dilution (1:x)
- Titer (Total human IgG [30]): < 1000 dilution (1:x)
- Titer [31]: < 1000 dilution (1:x)
- Titer [32]: 512000 dilution (1:x)
- OD450 [33]: 0.085 OD450
- OD450 (Total human IgG [34]): 0.076 OD450
- OD450 [35]: 0.077 OD450
- OD450 [36]: 0.245 OD450
- OD450 [37]: 0.06 OD450
- OD450 (Total human IgG [38]): 0.064 OD450
- OD450 [39]: 0.076 OD450
- OD450 [40]: 0.676 OD450
- OD450 [41]: 0.057 OD450
- OD450 (Total human IgG [42]): 0.069 OD450
- OD450 [43]: 0.059 OD450
- OD450 [44]: 1.79 OD450
- % CAR+ [45]: 60.5%
- OD450 [46]: 0.059 OD450
- OD450 (Total human IgG [47]): 0.08 OD450
- OD450 [48]: 0.059 OD450
- OD450 [49]: 1.89 OD450
- % CAR+ [50]: 62.9%
- OD450 [51]: 0.059 OD450
- OD450 (Total human IgG [52]): 0.073 OD450
- OD450 [53]: 0.064 OD450
- OD450 [54]: 1.88 OD450
- % CAR+ [55]: 67.9%
- % CAR+ [56]: 70.1%

B2: 29E4B5-1 (Recombinant) (antibody, V domains shown)
VH: B1 VH
VL: DIVLTQSPASLAVSLGQRATISCRASKSVSSSDYTYMHWYQQKPGQPPKLLIYLASNLESGVPARFSGSGSGTDFTLNIHPVEEEDAATYYCQHSRELPPTFGGGTKLEIK
notes: also called recombinant 29E4B5 antibody
- % CAR+ [1]: 68%
- % CAR+ [14]: 69.1%
- % CAR+ [27]: 65.9%
- % CAR+ [28]: 69.3%
- % CAR+ [45]: 58%
- % CAR+ [50]: 62.5%
- % CAR+ [55]: 68.8%
- % CAR+ [56]: 69.6%

B3: reference anti-FMC63-scFv antibody (rec_mab3) (antibody, V domains shown)
VH: B1 VH with L5V, Q6E, I27F, R39Q, K58I, A61T, N99R, V101D, G102A
VL: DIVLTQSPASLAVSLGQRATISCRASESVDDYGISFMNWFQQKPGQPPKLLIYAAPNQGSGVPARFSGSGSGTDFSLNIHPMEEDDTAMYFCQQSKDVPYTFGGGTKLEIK
notes: also called control anti-FMC63-scFv antibody
- % CAR+ [1]: 66.4%
- % CAR+ [14]: 68.9%
- % CAR+ [27]: 62.2%
- % CAR+ [28]: 69.4%
- % CAR+ [45]: 49.1%
- % CAR+ [50]: 56.6%
- % CAR+ [55]: 69.7%
- % CAR+ [56]: 69.8%
